Reference: the nanobody polyreactivity screen of Harvey et al. (2022)

Assay: yeast display, Sf9 membrane polyspecificity reagent, FACS + sequencing; frameworks hold sequencing errors
In short: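 Synthetic nanobody libraries on Saccharomyces cerevisiae BJ5465 were galactose-induced for 36–48 hours, stained 1 hour at 4 °C with 10% biotinylated, detergent-solubilized Sf9 membrane reagent and enriched on streptavidin microbeads. FACS then separated cells into low and high (top ~1%) gates by anti-HA (expression) and streptavidin (reagent binding) fluorescence. Genes were colony-PCR amplified, MiSeq 2 × 250 sequenced and CDR-length filtered. A clone's polyreactivity label is that of its gate of origin.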

| Sequence | polyreactivity (PSR sort gate) |
| --- | --- |
| QLQLVQSGGGLVQAGGSLRLSCAASGITSPYAMGWYRQAPGKERELVARNSKGGGSTYYADSVKGRFTISRDNAKNTVYLQMNSLKPEDTAVYYCAADWYNRSRPRYYTRYYYWGQGTQVTVSS | high polyreactivity |
| QVEHVESGGALGQAGGSLRLSCAASGITFAPYAMGWYREAPGKETEFDAGINTGGSKYYADSVKGRFTISRDNAKNTFYVQMNSLKPEDTAVYFCATESYPADQDIPGSDYWGQGTQVTVSS | low polyreactivity |
| QVELQVSGGGLVRAGGSLRLSCAASGNIFDADIMGWYRQAPGKERELVASITGGGSTSYAESAKGRFTISRDNAKNAVYLQMNSLKPEDTAVYYCAKDGYVYGDWYTYAYDYWGQGTQVTVSS | low polyreactivity |
| QVELVESAGGLVQAGGSLRLSCAASGRIFAYNAMGWYRQAPGKERELVAAISQSGGSTYYADSVKGRFTISRANAKNTVYLQLNSLKPEDTAVYYCHAVYGRQYRGYNYKYYYWGQGTQVTVSS | high polyreactivity |
| QVELVESGAGLVQAGGSLRLSCAASGRIFRYYVKGWYRQAPGKESELVAAISSGGSTNYADSVKGRFTISRDNAKNTVYLQMNSLKPEDTAVYYCNRDIGGSSVLDDYWGQGTQVTVSS | low polyreactivity |
| QVELVESGGGLVQAGGSLRLSCAASGITFYVYTMGWYRQAPGKERELVAAINGSGGSTNYADSVKGRFTISRDIAKNTVFLQMNSLKPEDSAVYYCAADWSLRLYDYWGQGTQVTVSS | low polyreactivity |
| QVELVESGGGLVQAGGSLRLSCAASGRIFSPNAMGWYRQAPGKERELVAALTGSGGTTYYADSVKGRFKISRDNAKNTVYLQMNSLKREDTAVYYCAADLYPFSRNPRYQFLYNYWGQGTQVTVSS | low polyreactivity |
| QVELVESGGGLVQAGGSLSLSCAASGFTFVGNTMGWYRQAPGKEREWGAAIRGRDGRTYYADSVKGRFTISRDKAKNTVYLQMNSLKPEETAVYYCNVDVKYSVRSEIDYWGQRTQVTVSS | low polyreactivity |
| QVELVESGGGLVQGGGTLRLSCAASGRTFNRYAMGWYRQAPGKERELVASITRSGGSTYYADSVKGRFTISRENAKNTVSLQMNSLKPDHTAVYYCANRSSGCFGYWGQGTQVTLSS | high polyreactivity |
| QVHHVESAGGLVQAGGILRLSCAASGRTFGANAMGWYRQPPVKERELVAAISKSGGRTYYADSVTGRFTISRDNAKNTVYLQMNSLKPEDTEVYYCNKVMCVSQAGGFDYWGQGTQVTVSS | high polyreactivity |
| QVHHVESGGGLVQAGGSLRLSCAAYGFIFNVYAMGWYRQAPGKERELVAAISTSGSNTYYADSVKGRFTISRDNAKNTVYLQMNSLKPEDTADYYCAAAYRYPSGRSFGYWGQGTQVTVSS | high polyreactivity |
| QVHHVESGGGVVQAGGSLRLSCAASGRITYVNAMGWYRQPPGKESELVATITGSGDSKHYADSVKGRFTISRDNAMNTVYLQMNSLKPEVTAVYYGAADVYRYWQIYEYWGQGTQVTVSS | low polyreactivity |
| QVHIVESGGGLDQAGGSLRLSCAASGFTFNAYAMGWYRQAPGKERELVAAISGRGSSTYYADSVKGRFTISRDNAKNTVYLQMNSLKPEDTEVYYCATKFYYQYPYRGDYWGQGTEVTVSS | high polyreactivity |
| QVHLEESGGGLVQAGGSLRISCAASGSTFYYYAMGWYRQAPGKERELVAAISNRDGRTYYADSVKGRFTISRDNAKNTVYLQMNSLKPEDSAVYYCNAYSYGHYYWGQGTQVTVSS | high polyreactivity |
| QVHLEESGGGLVQAGGSLRLSCAASGGTILAYAMGWYRQAPGKERELVAAITRRGTRTYYADSVKGRFTISLDNAKNTVYLQMNSLKPEVTAVFYCAVSGGFYWGQGTQVTVSS | high polyreactivity |
| QVHLEESGGGLVQAGGSLRLSCAASGIIFHFNDRGWYRQATGKERELVAAITSGGSTNYADSVKGRFTISRDNAKNTVYLQMNSLKPEDTAVYYCAARRCLRLFAYRHGYWGQGTQVTVSS | low polyreactivity |
| QVHLEESGGGLVQAGGSLRLSSAASGSNFDYNAMGWYRQAPGKERELVAAISRTGGRTYYADSVKGRFTISRDNAKNTVYLQMNSLKPEDTAVYYWNAVNRIGGGDYDYWGLGTQVTVSS | low polyreactivity |
| QVHLEESGGRLVQEGGSLRISCAASGSILRSYAMGWYRQAPGKERELVAVINRGTSTNYADSVKGRFTISRDNAKNTVYLQMNSVKPEDTAVYYCAVAVLPWQLDSESYAEYDYWGEGTQVTVSS | low polyreactivity |
| QVHLEESGRGLLQAGGSLRLSCDASGSTQNLYVMGWYRQAPGKESELVAAITSRGGRTYYADSVKGRFTISRDNAKNTVYLHMNSLKPEDTAVYYCAATKKTGYYRYYYWGQGTQVTVSS | high polyreactivity |
| QVHLGDSGGGLVQAGGSLRLSCAASGRIFWTYAMGWYRQAPGKERELVAAIRWSSGSTRYADSVKGRFTISRDNAKNTVYLQLNSVKPEDTAVYYCAADAFRSQRPYTYDYWGQGTQVTVSS | high polyreactivity |
| QVHLGESGGRLVQPGGSLRLSCAASGCTFCPYAMGWSRQAPGKARELVAAISNGGGPKYADSVKCRFTISRDNAKHTVYLQMNSLKPEDTAVYYCAKTLWTGRAWYDYWGQGTQVTVSS | high polyreactivity |

| Sequence | polyreactivity (PSR sort gate) |
| --- | --- |
| QVHLHESGGGLVQAGGSLRLSCAASGTISYAGPMGWYRQAPGKEREFVAGIGVGSNTNYADSVKGRYTIIRDNAKNTLYLQKNSLKTEDTAVYYCAVAGYAPLGRPYWGQGTQVTVSS | low polyreactivity |
| QVHLQERGGGLVQAGGSLRLSCAASGSIFYWPWMGWYRQAPGREREFVATITTGSNTYYADSMKGHLTNSRDNAINTVYLQMISQKPEDTAVYFCAVVGDGEIEHRYWGQGTQVTVSS | high polyreactivity |
| QVHLQESGCGLVQAGGSLRLSCAPSGSIFVSVTMGWYRQAPGKERELVASIGRGSTTNHADSVKGRFTISRDNAKNIVYLLMNSLKPEDTAVYFCAALESYGKYHGYWGQGTKVTVSS | low polyreactivity |
| QVHLQESGGGLVKAGGSLRLSCAASGNISNHNDMGWYRQAPGKEREFVAGITAGGITNYADSVKGRFTISRDNAKNTVYLQMNSLKPEDTAVYYCAASPDYAKSYGYWGQGTQATVSS | low polyreactivity |
| QVHLQESGGGLVQAGGSLRLSCAASGTIFRFRNMGWHRQAPGKERELVAGINGGTTTYYADSVIGRFTISRDNAKNTVYLQMNSLKPDDTAVYNCAAGASRLTYYDYWGQGTQVTVSS | low polyreactivity |
| QVHLQESGGGLVQAGGSLRLSCAASGTISQEDWMGWYRQAPGKEREFVAAIGLGSNTNYADSLKGRFTISRDNAKNSVYLQKNSLKPEDTAVYYFAVSVWQYSDHVYRGQGTQVTVSS | low polyreactivity |
| QVHLQESGGGLVQAGGSLRLSCAASGTITVLYKMGWFRQAPGKEREFVASINYGTSTYYADSVKGRFTVSRDSAKNTVYLQMNSLKPEDTAVYYCAAAYRWQDVYRYWGQGTQVTVSS | low polyreactivity |
| QVHLQESGGGQVQAGGSLRLSCAASGSISYASGMGWYRQAPGTEREFVASIDPGAITNYADSVKGRFTISHDNAKNTVYLQMNSLKPEYTAVYYCAARVSTTDSHGYWGQGTQVTVSS | high polyreactivity |
| QVHLVASGGGLVQAGGSLRLSCAASGSIFRRYAKGSYRQAPGKERELGAGISSGGYTNYAASVKGPFTISRDNAKNNVYLQRYSLKPEDTAVYYCAANQYRDVRYRPVDYWGQGTQVTVSS | high polyreactivity |
| QVHLVDSGGGLFQAGGILRLSCAASGRTIATNAMGWYRQAPGKERELVAGISWRVGRTYYADSVKGRFTISRDNAKNSVYLQMFSLKPEDTAVYYCAANPVRSRYGYWGQGTQVTVSS | high polyreactivity |
| QVHLVDSGGGLVLAGGSLRLSCAASGRNFERYAMGWYRKAPGKERELVAAISSSATRTYYADSVKGRFTISRDNAKNTVYLQMNSLKPEDTAVYYCAAKGAARDGSSEYNYWGQGTQVTVSS | high polyreactivity |
| QVHLVDSGGGLVQAGGSLRLSCAASGIIFTGNAMGWYRQAPGKERELVAGITGSGGNTYYADSVKGRFTISSDNAKNTVYLQMNCLKPEDTAVYYCAARRHIFLLIIWSGRVDYWGQGTQVTVSS | low polyreactivity |
| QVHLVDSGGGLVQAGGSLRLSCAASGSTIRYYAMGWYRQAPGKEREMVAAITSSGTSTYYADSVKGRFTISRDNAKNTVYLQMNSLKPEDTAVYYCAAPPVYKWVSSRYDYWGQGTQVTVSS | low polyreactivity |
| QVHLVDSGGRLVQAGGSLRLSCSASGNNFPGYAMGLYRQAPGKEREFVATITSNDGTTYYADSVKGRFTISRDNAMNTFFLQMNSLKPEDTAVYYCASVVRQYGFDYLGQGTQVTVSS | low polyreactivity |
| QVHLVDTGGGLVQARGRLRLSCPASGYNFSYYAMASYRQAPGKERELVATIDWGGGSTYYADSVQGRFTISRDIAKNTVYLQLNSLKPEDTGVYYCAKDYYINNYGYRYVSWGKGTQVTVSS | low polyreactivity |
| QVHLVESAAGLVQAGGSLRLSCDPSGFTFYAYPMGWYSQAPGKEREFVAAISSRGGRTYYADSVKGRFTISRDNAKNTVYLQMNSLKPEDTAVYYCNVPYYSFRALSSYYWGQGTQVTVSS | high polyreactivity |
| QVHLVESAGCLVQAAGSLRLSCSASGFTFGYNTMGWFRQPPGKERELVAAISYGGGRTYYADSVKWRFTISRDNAKNTVYLQMNSLKPEDSAVYYCAAAPIPSLTYDYWGQGTQVTVSS | low polyreactivity |
| QVHLVESAGGLVHAGGSHRLSCAASGFIFYRNAMGCYRQEPGKERELVAAISYRGARTYYADSVKGRFTISRDYEKNTVYLQMNSLKPEDTAVYYCAAQGVSSPGVDSWGQGTQVTVSS | high polyreactivity |
| QVHLVESAGGLVQAGGSLSLSCHASGSTFVWNAMGWYRQAPGKEMELVATMTLSTGSTYYADSVKGRFTISRDNAKNTVYLQMNSLKPEDTAVYYCNTEIFVDIIYDYGLWGQGTQVTVSS | low polyreactivity |
| QVHLVESGAGLVQAGGSLRLSCASSGFTFKAYAMGWYRQAPGKERELVAAITKSGGRTFYADSVKGRFTISRDNAKNTVYLQMNSLKPEDTAVYYCAASYTVYYWGQGTKVTVSS | high polyreactivity |
